Assay [1] addresses collagen (type III).
Assay [2] addresses collagen (type III). The source holds these as a separate data set.

B1: recombinant Asp-Pallidipin (protein of SEQ ID NO:1) (protein)
chain: DEECELMPPGDNFDLEKYFSIPHVYVTHSRNGPKEQVCREYKTTKNSDGTTTTTLVTSDYKTGGKPYHSELKCTNTPKSGGKGQFSVECEVPNGNGGKKKIHVETSVIATDYKNYALLQSCTKTESGIADDVLLLQTKKEGVDPGVTSVLKSVNWSLDDWFSRSKVNCDNMK
For B1, the attachment of 51Cr-labelled MTLn3 rat mammary tumor cells to collagen-coated wells (cpm) in the assay with collagen (type III) [1] is 1080 cpm. Besides, the adhesion of metastatic tumor cells to collagen with collagen (type III) [2] stood at 100 nmol/L. In addition, in the assay with collagen, the collagen-induced aggregation of human platelets in platelet-rich plasma (aggregometer, maximum value) amounted to 50 nM.
